Reference: the supplement of paper PMC9112550, “Optimization of the antimicrobial peptide Bac7 by deep mutational scanning” (BMC Biology, 2022)

System: Escherichia coli TOP10
Experiment: shrunken log2 fold change of peptide-encoding DNA abundance (4.5 h post-induction vs induction); higher = less antimicrobial activity (less host growth inhibition)
Conditions: time post-induction: 4.5 h; library: site-saturation at positions 5, 18, 19, 20
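Also: peptides expressed intracellularly from a pBAD plasmid library in pooled LB shake-flask culture, induced with 0.3% L-arabinose, DNA abundance read by NGS, three biological replicates, DESeq2 with apeglm shrinkage.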

Sequence	shrunken log2 fold change
RRIRWRPPRLPRPRPRPRQFPRP	0.0819
RRIRWRPPRLPRPRPRPKEIPRP	0.487
RRIRGRPPRLPRPRPRPDQCPRP	0.196
RRIRLRPPRLPRPRPRPRNCPRP	-0.51
RRIRRRPPRLPRPRPRPPGNPRP	0.428
RRIRNRPPRLPRPRPRPDKQPRP	0.00349
RRIRNRPPRLPRPRPRPNYCPRP	0.0133
RRIRERPPRLPRPRPRPSFMPRP	-0.546
RRIRSRPPRLPRPRPRPMQKPRP	-0.0221
RRIRGRPPRLPRPRPRPVWPPRP	0.947
RRIRPRPPRLPRPRPRPVGDPRP	0.365
RRIRDRPPRLPRPRPRPWLAPRP	0.171
RRIRHRPPRLPRPRPRPRHKPRP	-0.556
RRIRKRPPRLPRPRPRPNGNPRP	-0.146
RRIRWRPPRLPRPRPRPCMGPRP	-0.0956
RRIRWRPPRLPRPRPRPTLQPRP	0.253
RRIRFRPPRLPRPRPRPVAYPRP	-0.19
RRIRERPPRLPRPRPRPRHLPRP	-0.427
RRIRERPPRLPRPRPRPDWQPRP	-0.552
RRIRDRPPRLPRPRPRPHWRPRP	0.0876
RRIRMRPPRLPRPRPRPLAAPRP	2.64
RRIRYRPPRLPRPRPRPRNFPRP	-0.358
RRIRCRPPRLPRPRPRPIGDPRP	-0.0014
RRIRGRPPRLPRPRPRPYDMPRP	-0.0187
RRIRNRPPRLPRPRPRPTWTPRP	0.201

Sequence	shrunken log2 fold change
RRIRRRPPRLPRPRPRPGAKPRP	0.701
RRIRVRPPRLPRPRPRPRTTPRP	0.378
RRIRIRPPRLPRPRPRPMYGPRP	-0.437
RRIRYRPPRLPRPRPRPDRFPRP	-0.411
RRIRQRPPRLPRPRPRPCNFPRP	0.0393
RRIRIRPPRLPRPRPRPNWNPRP	-0.388
RRIRCRPPRLPRPRPRPHSIPRP	-0.101
RRIRARPPRLPRPRPRPLQGPRP	0.0704
RRIRARPPRLPRPRPRPLFWPRP	0.678
RRIRERPPRLPRPRPRPMLFPRP	-0.0835
RRIRTRPPRLPRPRPRPLPCPRP	0.0112
RRIRYRPPRLPRPRPRPPLIPRP	-0.185
RRIRCRPPRLPRPRPRPGHTPRP	-0.128
RRIRHRPPRLPRPRPRPFFQPRP	-0.202
RRIRHRPPRLPRPRPRPWVRPRP	0.0215
RRIRARPPRLPRPRPRPQDQPRP	0.302
RRIRYRPPRLPRPRPRPLDAPRP	-0.0975
RRIRQRPPRLPRPRPRPKIQPRP	-0.0232
RRIRVRPPRLPRPRPRPYHPPRP	-0.406
RRIRWRPPRLPRPRPRPTCMPRP	0.553
RRIRMRPPRLPRPRPRPQGDPRP	-0.477
RRIRCRPPRLPRPRPRPVAEPRP	0.417
RRIRNRPPRLPRPRPRPWRCPRP	-0.0792
RRIRDRPPRLPRPRPRPDWCPRP	0.163
RRIRRRPPRLPRPRPRPYNSPRP	-0.573

Sequence	shrunken log2 fold change
RRIRWRPPRLPRPRPRPVIRPRP	0.0511
RRIRHRPPRLPRPRPRPPYWPRP	1.65
RRIRHRPPRLPRPRPRPSCTPRP	-0.263
RRIRVRPPRLPRPRPRPWMIPRP	-0.0467
RRIRYRPPRLPRPRPRPAMFPRP	-0.229
RRIRTRPPRLPRPRPRPMMIPRP	0.000458
RRIRCRPPRLPRPRPRPLNIPRP	-0.379
RRIRLRPPRLPRPRPRPRIDPRP	-0.0317
RRIRNRPPRLPRPRPRPTKKPRP	0.0702
RRIRLRPPRLPRPRPRPMSPPRP	0.0855
RRIRERPPRLPRPRPRPIEQPRP	-0.00133
RRIRWRPPRLPRPRPRPPHHPRP	0.214
RRIRFRPPRLPRPRPRPYQRPRP	-0.238
RRIRKRPPRLPRPRPRPDYQPRP	-0.0353
RRIRDRPPRLPRPRPRPFANPRP	-0.177
RRIRDRPPRLPRPRPRPMRVPRP	0.304
RRIRGRPPRLPRPRPRPFKEPRP	-0.0428
RRIRFRPPRLPRPRPRPPAMPRP	0.775
RRIRDRPPRLPRPRPRPILTPRP	-0.0144
RRIRFRPPRLPRPRPRPMWVPRP	-0.00617
RRIRCRPPRLPRPRPRPVRYPRP	0.0829
RRIRARPPRLPRPRPRPEWRPRP	0.37
RRIRTRPPRLPRPRPRPSMAPRP	0.444
RRIRVRPPRLPRPRPRPASWPRP	0.294
RRIRNRPPRLPRPRPRPRHAPRP	0.0219

Sequence	shrunken log2 fold change
RRIRRRPPRLPRPRPRPETHPRP	0.697
RRIRPRPPRLPRPRPRPWKIPRP	-0.244
RRIRCRPPRLPRPRPRPNSMPRP	-0.745
RRIRHRPPRLPRPRPRPINCPRP	0.00172
RRIRERPPRLPRPRPRPPDDPRP	0.103
RRIRTRPPRLPRPRPRPSLVPRP	0.0852
RRIRNRPPRLPRPRPRPGRKPRP	0.132
RRIRPRPPRLPRPRPRPEAMPRP	0.0142
RRIRFRPPRLPRPRPRPHALPRP	-0.222
RRIRLRPPRLPRPRPRPDYNPRP	-0.657
RRIRARPPRLPRPRPRPDTLPRP	-0.0794
RRIRHRPPRLPRPRPRPFQLPRP	-0.0386
RRIRWRPPRLPRPRPRPRFMPRP	-0.17
RRIRFRPPRLPRPRPRPMFPPRP	-0.368
RRIRKRPPRLPRPRPRPTGSPRP	0.423
RRIRARPPRLPRPRPRPGFGPRP	0.667
RRIRRRPPRLPRPRPRPGLFPRP	0.389
RRIRWRPPRLPRPRPRPLTPPRP	0.412
RRIRSRPPRLPRPRPRPKQGPRP	0.245
RRIRERPPRLPRPRPRPMPNPRP	-0.172
RRIRLRPPRLPRPRPRPSYPPRP	-0.472
RRIRMRPPRLPRPRPRPDAHPRP	0.0846
RRIRLRPPRLPRPRPRPEFCPRP	0.11
RRIRARPPRLPRPRPRPHTMPRP	-0.0952
RRIRSRPPRLPRPRPRPPMVPRP	0.131

Sequence	shrunken log2 fold change
RRIRIRPPRLPRPRPRPMEQPRP	-0.00783
RRIRARPPRLPRPRPRPGYHPRP	-0.14
RRIRTRPPRLPRPRPRPCSLPRP	-0.128
RRIRNRPPRLPRPRPRPVWMPRP	-0.0917
RRIRQRPPRLPRPRPRPRGNPRP	0.106
RRIRQRPPRLPRPRPRPIVEPRP	0.0141
RRIRWRPPRLPRPRPRPFYGPRP	-0.0562
RRIRFRPPRLPRPRPRPGHKPRP	0.0531
RRIRLRPPRLPRPRPRPYNPPRP	-0.454
RRIRPRPPRLPRPRPRPPKNPRP	0.26
RRIRYRPPRLPRPRPRPMDLPRP	-0.0912
RRIRSRPPRLPRPRPRPMYLPRP	-0.0356
RRIRIRPPRLPRPRPRPEQSPRP	0.168
RRIRPRPPRLPRPRPRPNHDPRP	-0.384
RRIRWRPPRLPRPRPRPTRWPRP	0.573
RRIRFRPPRLPRPRPRPIMNPRP	-0.515
RRIRFRPPRLPRPRPRPWCCPRP	-0.654
RRIRYRPPRLPRPRPRPYREPRP	0.0196
RRIRTRPPRLPRPRPRPDCNPRP	0.0556
RRIRCRPPRLPRPRPRPHWLPRP	-0.311
RRIRERPPRLPRPRPRPPQPPRP	0.307
RRIRGRPPRLPRPRPRPKQWPRP	0.28
RRIRHRPPRLPRPRPRPLELPRP	-0.0293
RRIRPRPPRLPRPRPRPWPYPRP	0.0948
RRIRYRPPRLPRPRPRPNPLPRP	-0.766
